Test results as given in paper PMC7710122.

Experiments:
[1] = western blot of β1 in purified sEVs; conditions: glycan changed form; control: vec-sEVs
[2] = western blot of cell lysates; conditions: glycan changed form; control: MDA/vec

With integrin β1: MGAT3 overexpression the localisation_or_trafficking [1] was “no change” and the expression_or_secretion [2] was “no change”.
